Test results reported in article PMC4069103, “Computational Design of a pH Stable Enzyme: Understanding Molecular Mechanism of Penicillin Acylase's Adaptation to Alkaline Conditions” (PLoS ONE, 2014).

Substrate: O=C(Cc1ccccc1)Nc1ccc([N+](=O)[O-])c(C(=O)O)c1
Assay: purified protein
Assay type: biochemical, Escherichia coli
Conditions: pH 7.5, 25°C, 10 mM phosphate, 0.1 M KCl, hydrolysis

B1: penicillin acylase from Escherichia coli (EcPA) (Escherichia coli) (protein)
chain 1: EQSSSEIKIVRDEYGMPHIYANDTWHLFYGYGYVVAQDRLFQMEMARRSTQGTVAEVLGKDFVKFDKDIRRNYWPDAIRAQIAALSPEDMSILQGYADGMNAWIDKVNTNPETLLPKQFNTFGFTPKRWEPFDVAMIFVGTMANRFSDSTSEIDNLALLTALKDKYGVSQGMAVFNQLKWLVNPSAPTTIAVQESNYPLKFNQQNSQTA
chain 2: SNMWVIGKSKAQDAKAIMVNGPQFGWYAPAYTYGIGLHGAGYDVTGNTPFAYPGLVFGHNGVISWGSTAGFGDDVDIFAERLSAEKPGYYLHNGKWVKMLSREETITVKNGQAETFTVWRTVHGNILQTDQTTQTAYAKSRAWDGKEVASLLAWTHQMKAKNWQEWTQQAAKQALTINWYYADVNGNIGYVHTGAYPDRQSGHDPRLPVPGTGKWDWKGLLPFEMNPKVYNPQSGYIANWNNSPQKDYPASDLFAFLWGGADRVTEIDRLLEQKPRLTADQAWDVIRQTSRQDLNLRLFLPTLQAATSGLTQSDPRRQLVETLTRWDGINLLNDDGKTWQQPGSAILNVWLTSMLKRTVVAAVPMPFDKWYSASGYETTQDGPTGSLNISVGAKILYEAVQGDKSPIPQAVDLFAGKPQQEVVLAALEDTWETLSKRYGNNVSNWKTPAMALTFRANNFFGVPQAAAEETRHQAEYQNRGTENDMIVFSPTTSDRPVLAWDVVAPGQSGFIAPDGTVDKHYEDQLKMYENFGRKSLWLTKQDVEAHKESQEVLHVQR
notes: heterodimer of alpha (209 residues) and beta (557 residues) chains matured from one pac precursor; modified pBR322 vector with cat gene, expressed in E. coli TG-1, osmotic shock, hydrophobic chromatography; no tag mentioned
Km: 25.0 ± 0.8 µM
kcat: 25 ± 1.4 s⁻¹
kcat/Km: 1e+06 ± 90000 M⁻¹ s⁻¹
